Test results reported in publication PMC6862464, “Structural Insights into AQP2 Targeting to Multivesicular Bodies” (International Journal of Molecular Sciences, 2019).

How the values were obtained:
Assay in all cases: other fluorescence titration; Alexa 488-labeled, dephosphorylated AQP2 (around 1 uM) in the cuvette, titrated with unlabeled LIP5; total fluorescence; 20 mM Tris-HCl pH 8, 300 mM NaCl, 0.2% OGNG; triplicate titrations
Settings in all cases: both partners purified
[1] = target: T1, full-length human lysosomal trafficking regulator-interacting protein 5 (FL-LIP5) (human, UniProt Q9NP79 1-307)
T1 construct: spacer between the last LIP5 residue and the TEV protease site that precedes the His tag; same tag, TEV site and linker as ND-LIP5; No TEV cleavage is described; also called full-length LIP5; wild-type LIP5; source: E. coli BL21*(DE3), purified (HisTrap, SEC)
T1 sequence: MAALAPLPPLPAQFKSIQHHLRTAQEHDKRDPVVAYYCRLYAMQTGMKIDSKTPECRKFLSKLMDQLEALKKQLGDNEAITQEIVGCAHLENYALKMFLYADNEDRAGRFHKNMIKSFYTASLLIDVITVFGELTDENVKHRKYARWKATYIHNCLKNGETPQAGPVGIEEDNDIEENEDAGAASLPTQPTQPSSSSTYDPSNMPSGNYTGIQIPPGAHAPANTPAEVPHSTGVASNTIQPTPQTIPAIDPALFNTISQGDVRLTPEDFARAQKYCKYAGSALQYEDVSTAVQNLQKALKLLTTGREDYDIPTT

[2] = target: T2, full-length human LIP5 M43A (human, UniProt Q9NP79 1-307, M43A)
T2 construct: LIP5, human, full length, point mutant; spacer before the TEV site and His tag, as in m2; Mutant of m2; dimer as said of full-length LIP5 (cited); source: E. coli BL21*(DE3), purified (HisTrap, SEC)
T2 sequence: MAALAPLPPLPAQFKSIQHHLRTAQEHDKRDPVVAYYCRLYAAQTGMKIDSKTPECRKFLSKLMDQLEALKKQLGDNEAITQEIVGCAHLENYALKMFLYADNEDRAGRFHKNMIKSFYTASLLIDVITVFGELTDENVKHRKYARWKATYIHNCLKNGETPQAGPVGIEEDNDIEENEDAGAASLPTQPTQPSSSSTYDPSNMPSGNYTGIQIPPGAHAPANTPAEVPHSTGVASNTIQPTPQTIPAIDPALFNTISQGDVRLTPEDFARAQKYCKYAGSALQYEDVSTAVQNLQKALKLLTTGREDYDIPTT

[3] = target: T3, full-length human LIP5 M47A (human, UniProt Q9NP79 1-307, M47A)
T3 construct: LIP5, human, full length, point mutant; spacer before the TEV site and His tag, as in m2; Mutant of m2; dimer as said of full-length LIP5 (cited); source: E. coli BL21*(DE3), purified (HisTrap, SEC)
T3 sequence: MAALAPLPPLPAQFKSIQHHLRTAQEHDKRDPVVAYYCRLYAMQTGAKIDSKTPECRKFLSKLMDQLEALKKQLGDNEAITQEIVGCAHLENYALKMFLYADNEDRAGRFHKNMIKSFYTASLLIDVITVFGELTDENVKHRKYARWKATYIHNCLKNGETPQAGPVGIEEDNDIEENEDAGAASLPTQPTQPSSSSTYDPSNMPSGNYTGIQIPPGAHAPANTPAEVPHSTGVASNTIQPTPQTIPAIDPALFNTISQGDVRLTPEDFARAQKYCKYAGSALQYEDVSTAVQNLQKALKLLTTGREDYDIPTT

[4] = target: T4, full-length human LIP5 D65A (human, UniProt Q9NP79 1-307, D65A)
T4 construct: LIP5, human, full length, point mutant; spacer before the TEV site and His tag, as in m2; Mutant of m2; dimer as said of full-length LIP5 (cited); source: E. coli BL21*(DE3), purified (HisTrap, SEC)
T4 sequence: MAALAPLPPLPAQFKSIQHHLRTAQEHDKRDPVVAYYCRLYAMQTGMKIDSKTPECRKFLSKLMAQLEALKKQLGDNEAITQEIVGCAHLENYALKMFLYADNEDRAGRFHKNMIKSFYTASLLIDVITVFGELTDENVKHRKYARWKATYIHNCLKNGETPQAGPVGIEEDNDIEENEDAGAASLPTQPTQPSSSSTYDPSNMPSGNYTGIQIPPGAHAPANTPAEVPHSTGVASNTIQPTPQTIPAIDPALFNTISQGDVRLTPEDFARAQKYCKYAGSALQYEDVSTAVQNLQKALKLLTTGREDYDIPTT

[5] = target: T5, full-length human LIP5 L67A (human, UniProt Q9NP79 1-307, L67A)
T5 construct: LIP5, human, full length, point mutant; spacer before the TEV site and His tag, as in m2; Mutant of m2; dimer as said of full-length LIP5 (cited); source: E. coli BL21*(DE3), purified (HisTrap, SEC)
T5 sequence: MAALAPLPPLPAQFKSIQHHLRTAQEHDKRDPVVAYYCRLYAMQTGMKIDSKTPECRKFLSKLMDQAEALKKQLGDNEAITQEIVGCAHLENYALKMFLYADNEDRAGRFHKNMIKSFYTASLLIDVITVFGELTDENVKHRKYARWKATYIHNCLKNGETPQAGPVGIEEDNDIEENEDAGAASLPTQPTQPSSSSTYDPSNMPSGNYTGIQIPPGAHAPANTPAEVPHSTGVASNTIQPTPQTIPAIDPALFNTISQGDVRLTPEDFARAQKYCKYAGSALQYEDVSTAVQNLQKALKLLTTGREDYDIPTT

[6] = target: T6, full-length human LIP5 E68A (human, UniProt Q9NP79 1-307, E68A)
T6 construct: LIP5, human, full length, point mutant; spacer before the TEV site and His tag, as in m2; Mutant of m2; dimer as said of full-length LIP5 (cited); source: E. coli BL21*(DE3), purified (HisTrap, SEC)
T6 sequence: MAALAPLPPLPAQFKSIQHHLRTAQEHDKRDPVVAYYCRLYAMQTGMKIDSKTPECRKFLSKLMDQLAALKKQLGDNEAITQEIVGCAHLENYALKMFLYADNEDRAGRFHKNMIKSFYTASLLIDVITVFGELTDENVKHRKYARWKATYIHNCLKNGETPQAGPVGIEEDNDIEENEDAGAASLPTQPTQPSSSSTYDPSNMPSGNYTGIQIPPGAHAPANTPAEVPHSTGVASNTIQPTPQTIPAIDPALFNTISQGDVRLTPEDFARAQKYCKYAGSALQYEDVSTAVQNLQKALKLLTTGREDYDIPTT

Kd [1]: 0.237 µM
Kd [2]: 0.457 µM
Kd [3]: 0.463 µM
Kd [4]: 0.149 µM
Kd [5]: 0.298 µM
Kd [6]: 0.243 µM
B1: human aquaporin 2 (AQP2), wild-type (natural protein, UniProt P41181 1-271, looked up)
chain: MWELRSIAFSRAVFAEFLATLLFVFFGLGSALNWPQALPSVLQIAMAFGLGIGTLVQALGHISGAHINPAVTVACLVGCHVSVLRAAFYVAAQLLGAVAGAALLHEITPADIRGDLAVNALSNSTTAGQAVTVELFLTLQLVLCIFASTDERRGENPGTPALSIGFSVALGHLLGIHYTGCSMNPARSLAPAVVTGKFDDHWVFWIGPLVGAILGSLLYNYVLFPPAKSLSERLAVLKGLEPDTDWEEREVRRRQSVELHSPQSLPRGTKA
modifications: cysteine residues labeled with C5 maleimide Alexa 488; dephosphorylated with alkaline phosphatase before labeling
notes: concentrations and molar ratios seem to count monomers; His-tag is called uncleavable; also called WT; labeled AQP2; source: Pichia pastoris, purified (HisTrap, SEC) in OGNG; not shown: His-tag, N-terminal, kept
